The values below come from patent publication US20220073907A1, “TAGLESS ENCODED CHEMICAL LIBRARY” (NANNA THERAPEUTICS LIMITED, priority 2016, published 2022).

Series [1] deals with cleavable oligonucleotide. As to the kind of experiment: Enzymatic release of BHQ-1 quencher from FITC-labelled cleavable oligonucleotide, denaturing gel. The format is biochemical. The following applies: 10-fold serial dilutions of stock enzyme from 10^−2 to 10^−5 in 10 mM Tris-HCl pH 7.5, 1 mM EDTA; 150 nM cleavable oligonucleotide. An excerpt:
Referring now to FIG. 4, to show cleavage of the linker and release of the pharmacore oligonucleotides were made which incorporated a fluorophore (FITC, shown as F in FIG. 4) 5′ to the cleavable linker within the sequence of the cleavable oligonucleotide. A quencher molecule, BHQ-1, was then attached to the cleavable linker. This can be released by cleavage in the same manner as any chemical structure used in library generation. Light up of the oligonucleotide is seen when the quencher is removed from the cleavable linker.
Three different enzymes have been identified which cleave their associated linkers in a scarless manner (RNase A, RNase T1 A and RNase 1 A; labelled as enzymes A, B and C respectively in FIG. 4). All 3 were tested with their compatriot linkers. In each case 10 μl reactions were set up; 10 mM Tris-HCl, 1 mM EDTA, 150 nM cleavable oligonucleotide 0.1 μl of stock enzyme (RNase A=10 mg/ml, RNase T1=10 mg/ml RNase 1=1.5 mg/ml) then to 10 μl with nuclease free water. Samples were incubated for 15 minutes at 37° C. and then 10 μL denaturing loading dye added (95% formamide, 0.1% xylene cyanole, 0.1% Bromophenol Blue, 20 mM Tris-HCl pH 7.5). Samples were boiled for 2 minutes at 95° C. and then rapidly cooled to 4° C. at 4° C./s. These samples were then loaded onto a denaturing TBE-gel (12.5% polyacrylamide, 7M Urea). The gel was run at 150V for 75 minutes and the imaged using a Syngene Ingenius3 system exciting the FITC. Release of the quencher means the fluorophore can be seen and imaged as ‘light up’. This is seen as appearance of yellow DNA band in the presence of enzyme. By staining with SyBr gold (Thermo) DNA can be seen and this is again quenched when quencher is present but the size shift corresponding to the change in mass can be seen as well as increased signal (grey scale image below fluorophore, FIG. 4). In both cases we can see release only occurs in the presence of the enzymes and is rapid (<15 minutes). […]

For another series, the system named is Jurkat cells. Briefly: Effect of RNaseA in the cell mixture on cellular growth. The format is cell-based. The following applies: 0.1 μg/ml in the cell mixture. The text has this:
DNA guides assembly of monomers—were synthesised using conventional chemistry the RNA tags were synthesised in advance by IDT. The last 3 nucleotides contain phosphorothioate linkages to prevent cleavage by exonucleases. Individual reagents are then tagged with a guide to a specific RNA specific to a unique sequence incorporated into the guide oligonucleotide (100 unique monomers can be assembled, assuming up to 4 guide sequences into over 100,000,000 unique compounds). […] 1) Beads are packed into a column (each bead is clonal with a unique DNA sequence to guide assembly but μM concentrations of this clonal guide on each bead) and at 20 μM 200 million can be present per ml of bead volume. 2) A pool of monomers and appropriate reagents are then washed onto the column and reactions allowed to proceed, the column can be washed and new reaction chemistry added as needed (note fresh monomers can also be added). 3) Chemical synthesis varies with monomers used (see example 2, section 4). 4) Finally the beads are washed with 10 column volumes of TE with 100 mM NaCl and then 2 column volumes of appropriate media for growth of cells in the phenotypic screen e.g. RPMI. 5) Beads are then collected in the growth media and ready for encapsulation with target cells. […]

A further series concerns RNA guides. Briefly: RNaseA cleavage of RNA guides in growth media. The format is biochemical.
In series [2] the test system is cleavable oligonucleotide. As to the kind of experiment: Enzymatic release of payload from cleavable linker in 100 μm aqueous droplets. The format is biochemical. The following applies: 10 μl stock RNase A (10 mg/ml) per 1 ml aqueous phase, 37° C. for 15 minutes, 100 μm droplets. The protocol:
We also confirmed that the enzymes function in the droplet environment (see FIG. 5). Results are shown for RNase A. 1 ml of aqueous phase was set up using 10 mM Tris-HCl, 1 mM EDTA, 150 nM cleavable oligonucleotide 10 μl of stock RNase A (10 mg/ml) then to 1 ml with nuclease free water. Droplets of […] mean diameter were made using a 100 μm etch depth chip with the aqueous phase as described above and the oil phase comprising of PSF-2 cST oil (Clearco Products Inc.) with 2% w/v Gransurf G67 (Grant Industries Inc.) Droplets were incubated with and without enzyme at 37° C. for 15 minutes and them imaged under a Floid fluorescence microscope illuminating at 482/18 nm and emission filters of 532/59 nm.

For “RNase 1: enzyme which cleaves its associated linker in a scarless manner; stock 1.5 mg/ml”, the “dilution of the enzyme at which activity is seen” value (from here on “dilution of the enzyme”) in series [1] is 10^−3.

B1: RNase A: enzyme which cleaves its associated RNA linker in a scarless manner; stock 10 mg/ml (protein, UniProt P61823 27-150, looked up)
Ribonuclease pancreatic: KETAAAKFERQHMDSSTSAASSSNYCNQMMKSRNLTKDRCKPVNTFVHESLADVQAVCSQKNVACKNGQTNCYQSYSTMSITDCRETGSSKYPNCAYKTTQANKHIIVACEGNPYVPVHFDASV
For the molecule B1, the “effect on cellular growth” value in the series with Jurkat cells is recorded as “doesn't affect cellular growth”. For the same molecule, in the series with RNA guides (0.1 μg/ml, growth media tested), the “duration of enzyme activity in growth media” value was “at least 48 h”. Moreover, the “time for cleavage of RNA guides” value in the series on RNA guides (in RPMI, lysogeny broth, tryptic soy broth and DMEM) fell in the range of 15 to 20 min. For the same molecule, the “light up (quencher release) in droplets” value in series [2] was “light up occurs in droplets in the presence of enzyme”. In addition, the “dilution of the enzyme” value in series [1] was 10^−4.

B2: RNase T1: enzyme which cleaves its associated linker in a scarless manner; stock 10 mg/ml (protein, UniProt P00651 27-130, looked up)
Guanyl-specific ribonuclease …: ACDYTCGSNCYSSSDVSTAQAAGYQLHEDGETVGSNSYPHKYNNYEGFDFSVSSPYYEWPILSSGDVYSGGSPGADRVVFNENNQLAGVITHTGASGNNFVECT
For B2, in series [1], the “dilution of the enzyme” value is reported as 10^−3.
